Assay results as given in patent US20190077860A1 (EISAI R AND D MANAGEMENT, published 2019).

What was measured:
Experiment in all cases: ELISA
SEAP-His = SEAP-His (UniProt P05187 23-511)
[1] = target: T1, human EphA3 extracellular region-SEAP-His protein (human, UniProt P29320 21-541)
T1 construct: extracellular domain; also called hEphA3-SEAP-His
T1 sequence (looked up): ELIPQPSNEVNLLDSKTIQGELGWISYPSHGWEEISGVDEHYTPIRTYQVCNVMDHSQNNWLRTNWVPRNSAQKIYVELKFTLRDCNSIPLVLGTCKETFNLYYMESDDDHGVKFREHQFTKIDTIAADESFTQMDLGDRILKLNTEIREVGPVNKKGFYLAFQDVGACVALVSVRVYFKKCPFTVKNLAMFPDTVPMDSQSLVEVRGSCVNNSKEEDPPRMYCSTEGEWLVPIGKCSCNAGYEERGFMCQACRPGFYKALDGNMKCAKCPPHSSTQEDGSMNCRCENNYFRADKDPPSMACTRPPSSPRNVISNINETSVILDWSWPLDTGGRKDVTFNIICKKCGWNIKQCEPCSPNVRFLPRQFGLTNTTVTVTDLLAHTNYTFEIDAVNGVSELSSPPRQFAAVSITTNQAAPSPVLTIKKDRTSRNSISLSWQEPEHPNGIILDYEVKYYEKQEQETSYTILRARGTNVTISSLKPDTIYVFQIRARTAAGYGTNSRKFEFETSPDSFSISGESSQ

[2] = target: T2, human EphA10 extracellular region-SEAP-His protein (human, UniProt Q5JZY3 34-565)
T2 construct: extracellular domain; also called hEphA10-SEAP-His
T2 sequence (looked up): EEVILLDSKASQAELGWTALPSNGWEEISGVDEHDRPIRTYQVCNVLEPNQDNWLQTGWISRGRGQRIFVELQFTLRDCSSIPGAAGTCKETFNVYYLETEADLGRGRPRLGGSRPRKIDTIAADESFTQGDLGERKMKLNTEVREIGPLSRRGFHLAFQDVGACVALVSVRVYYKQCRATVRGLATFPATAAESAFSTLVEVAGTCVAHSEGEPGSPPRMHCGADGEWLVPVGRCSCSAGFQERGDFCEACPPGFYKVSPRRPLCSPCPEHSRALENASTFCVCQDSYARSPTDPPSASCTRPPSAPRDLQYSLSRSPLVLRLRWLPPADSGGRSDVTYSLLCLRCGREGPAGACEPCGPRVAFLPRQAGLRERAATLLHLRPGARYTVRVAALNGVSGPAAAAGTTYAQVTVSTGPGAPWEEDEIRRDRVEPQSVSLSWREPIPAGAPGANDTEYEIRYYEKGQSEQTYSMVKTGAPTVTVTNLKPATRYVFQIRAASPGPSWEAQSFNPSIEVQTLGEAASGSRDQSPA

[3] = target: T3, human EphB3 extracellular region-SEAP-His protein (human, UniProt P54753 34-559)
T3 construct: extracellular domain; also called hEphB3-SEAP-His
T3 sequence (looked up): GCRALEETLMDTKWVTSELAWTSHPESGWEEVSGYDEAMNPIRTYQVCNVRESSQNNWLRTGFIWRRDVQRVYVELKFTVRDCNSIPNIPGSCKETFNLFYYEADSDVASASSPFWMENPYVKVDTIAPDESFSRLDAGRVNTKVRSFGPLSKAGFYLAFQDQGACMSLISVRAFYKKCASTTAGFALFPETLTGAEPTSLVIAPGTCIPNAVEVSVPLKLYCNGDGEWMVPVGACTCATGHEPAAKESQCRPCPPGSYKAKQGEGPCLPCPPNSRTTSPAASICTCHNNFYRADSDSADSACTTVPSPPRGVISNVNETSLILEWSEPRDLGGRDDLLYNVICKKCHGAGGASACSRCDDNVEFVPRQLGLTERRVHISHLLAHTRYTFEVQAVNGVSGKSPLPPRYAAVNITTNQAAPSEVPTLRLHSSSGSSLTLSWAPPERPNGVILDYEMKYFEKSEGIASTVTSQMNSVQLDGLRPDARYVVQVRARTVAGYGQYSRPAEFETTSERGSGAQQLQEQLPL

[4] = target: T4, human EphB4 extracellular region-SEAP-His protein (human, UniProt P54760 16-539)
T4 construct: extracellular domain; also called hEphB4-SEAP-His
T4 sequence (looked up): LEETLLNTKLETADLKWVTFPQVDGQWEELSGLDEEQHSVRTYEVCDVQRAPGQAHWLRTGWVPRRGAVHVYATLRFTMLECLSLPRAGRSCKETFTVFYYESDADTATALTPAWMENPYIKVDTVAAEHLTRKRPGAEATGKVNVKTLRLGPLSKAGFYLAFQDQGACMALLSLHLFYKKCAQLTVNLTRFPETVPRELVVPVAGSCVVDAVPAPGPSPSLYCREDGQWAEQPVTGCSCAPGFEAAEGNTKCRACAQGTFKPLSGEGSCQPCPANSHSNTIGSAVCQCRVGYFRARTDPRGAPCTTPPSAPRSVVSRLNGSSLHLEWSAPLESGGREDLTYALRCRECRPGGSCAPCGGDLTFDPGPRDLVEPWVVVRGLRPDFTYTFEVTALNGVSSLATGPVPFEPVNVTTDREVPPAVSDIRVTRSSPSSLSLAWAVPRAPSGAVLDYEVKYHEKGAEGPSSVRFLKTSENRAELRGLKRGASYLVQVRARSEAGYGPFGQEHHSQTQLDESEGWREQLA

Sequence of SEAP-His (P05187 23-511): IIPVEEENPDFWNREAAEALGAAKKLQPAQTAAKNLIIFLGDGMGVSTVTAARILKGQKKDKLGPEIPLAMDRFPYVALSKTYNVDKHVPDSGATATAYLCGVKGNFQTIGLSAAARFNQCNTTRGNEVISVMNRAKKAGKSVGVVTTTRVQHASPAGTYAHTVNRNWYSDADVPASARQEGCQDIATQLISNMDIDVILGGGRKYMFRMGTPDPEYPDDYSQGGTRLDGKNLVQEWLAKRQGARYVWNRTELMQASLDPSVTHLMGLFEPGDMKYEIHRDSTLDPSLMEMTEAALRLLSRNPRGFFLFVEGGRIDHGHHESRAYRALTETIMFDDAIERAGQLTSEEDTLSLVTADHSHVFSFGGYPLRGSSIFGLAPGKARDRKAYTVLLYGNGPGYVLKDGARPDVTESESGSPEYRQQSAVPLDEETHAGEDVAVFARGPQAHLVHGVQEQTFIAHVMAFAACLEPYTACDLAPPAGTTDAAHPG

B1: humanized antibody No. 85 (antibody, human IgG1, kappa)
heavy: QVQLVQSGSELKKPGASVKVSCKASGYTFTDYSMHWVRQAPGQGLKWMGWINTETGEPTYADDFKGRFVFSLDTSVSTAYLQISSLKAEDTAVYYCARIPLYYYGSRYWYFDVWGQGTTVTVSSASTKGPSVFPLAPSSKSTSGGTAALGCLVKDYFPEPVTVSWNSGALTSGVHTFPAVLQSSGLYSLSSVVTVPSSSLGTQTYICNVNHKPSNTKVDKRVEPKSCDKTHTCPPCPAPPAAAPSVFLFPPKPKDTLMISRTPEVTCVVVDVSHEDPEVQFNWYVDGVEVHNAKTKPREEQFNSTFRVVSVLTVVHQDWLNGKEYKCKVSNKGLPAPIEKTISKTKGQPREPQVYTLPPSREEMTKNQVSLTCLVKGFYPSDIAVEWESNGQPENNYKTTPPMLDSDGSFFLYSKLTVDKSRWQQGNVFSCSVMHEALHNHYTQKSLSLSPG
light: DIQMTQSPSSLSASVGDRVTITCRASENIYRNLAWYQQKPGKAPKLLLYAATNLADGVPSRFSGSGSGTDYTLTISSLQSEDFATYYCQHFWGTPWTFGQGTKVEIKRTVAAPSVFIFPPSDEQLKSGTASVVCLLNNFYPREAKVQWKVDNALQSGNSQESVTEQDSKDSTYSLSSTLTLSKADYEKHKVYACEVTHQGLSSPVTKSFNRGEC
notes: human Ig kappa; also called L1-5/HK2
- A450 as % of hEphA4-SEAP-His (SEAP-His): 5.3%
- A450 as % of hEphA4-SEAP-His [1]: 5.1%
- A450 as % of hEphA4-SEAP-His [2]: 5%
- A450 as % of hEphA4-SEAP-His [3]: 5.2%
- A450 as % of hEphA4-SEAP-His [4]: 5.2%

B2: humanized antibody No. 87 (antibody, human IgG1, kappa)
heavy: QVQLVQSGSELKKPGASVKVSCKASGYTFTDYSMHWVRQAPGQGLEWMGWINTETGEPTYAQGFTGRFVFSLDTSVSTAYLQISSLKAEDTAVYYCARIPLYYYGSRYWYFDVWGQGTTVTVSSASTKGPSVFPLAPSSKSTSGGTAALGCLVKDYFPEPVTVSWNSGALTSGVHTFPAVLQSSGLYSLSSVVTVPSSSLGTQTYICNVNHKPSNTKVDKRVEPKSCDKTHTCPPCPAPPAAAPSVFLFPPKPKDTLMISRTPEVTCVVVDVSHEDPEVQFNWYVDGVEVHNAKTKPREEQFNSTFRVVSVLTVVHQDWLNGKEYKCKVSNKGLPAPIEKTISKTKGQPREPQVYTLPPSREEMTKNQVSLTCLVKGFYPSDIAVEWESNGQPENNYKTTPPMLDSDGSFFLYSKLTVDKSRWQQGNVFSCSVMHEALHNHYTQKSLSLSPG
light: DIQMTQSPSSLSASVGDRVTITCRASENIYRNLAWYQQKPGKAPQLLLYAATNLADGVPSRFSGSGSGTDYTLTISSLQPEDFATYYCQHFWGTPWTFGQGTKVEIKRTVAAPSVFIFPPSDEQLKSGTASVVCLLNNFYPREAKVQWKVDNALQSGNSQESVTEQDSKDSTYSLSSTLTLSKADYEKHKVYACEVTHQGLSSPVTKSFNRGEC
notes: human Ig kappa; also called L1-6/HA1
- A450 as % of hEphA4-SEAP-His (SEAP-His): 5.5%
- A450 as % of hEphA4-SEAP-His [1]: 5.5%
- A450 as % of hEphA4-SEAP-His [2]: 5.2%
- A450 as % of hEphA4-SEAP-His [3]: 5.5%
- A450 as % of hEphA4-SEAP-His [4]: 5.5%

B3: humanized antibody No. 86 (antibody, human IgG1, kappa)
heavy: QIQLVQSGSELKKPGASVKVSCKASGYTFTDYSMHWVRQAPGQGLKWMGWINTETGEPTYADDFKGRFVFSLDTSVSTAYLQISSLKAEDTAVYYCARIPLYYYGSRYWYFDVWGQGTTVTVSSASTKGPSVFPLAPSSKSTSGGTAALGCLVKDYFPEPVTVSWNSGALTSGVHTFPAVLQSSGLYSLSSVVTVPSSSLGTQTYICNVNHKPSNTKVDKRVEPKSCDKTHTCPPCPAPPAAAPSVFLFPPKPKDTLMISRTPEVTCVVVDVSHEDPEVQFNWYVDGVEVHNAKTKPREEQFNSTFRVVSVLTVVHQDWLNGKEYKCKVSNKGLPAPIEKTISKTKGQPREPQVYTLPPSREEMTKNQVSLTCLVKGFYPSDIAVEWESNGQPENNYKTTPPMLDSDGSFFLYSKLTVDKSRWQQGNVFSCSVMHEALHNHYTQKSLSLSPG
light: DIQMTQSPSSLSASVGDRVTITCRASENIYRNLAWYQQKPGKAPKLLLYAATNLADGVPSRFSGSGSGTDYTLTISSLQSEDFATYYCQHFWGTPWTFGQGTKVEIKRTVAAPSVFIFPPSDEQLKSGTASVVCLLNNFYPREAKVQWKVDNALQSGNSQESVTEQDSKDSTYSLSSTLTLSKADYEKHKVYACEVTHQGLSSPVTKSFNRGEC
notes: human Ig kappa; also called L1-5/HK4
- A450 as % of hEphA4-SEAP-His (SEAP-His): 6.1%
- A450 as % of hEphA4-SEAP-His [1]: 5.8%
- A450 as % of hEphA4-SEAP-His [2]: 5.6%
- A450 as % of hEphA4-SEAP-His [3]: 5.9%
- A450 as % of hEphA4-SEAP-His [4]: 5.8%

B4: humanized antibody No. 88 (antibody, human IgG1, kappa)
heavy: QVQLVQSGSELKKPGASVKVSCKASGYTFTDYSMHWVRQAPGQGLKWMGWINTETGEPTYAQGFTGRFVFSLDTSVSTAYLQISSLKAEDTAVYYCARIPLYYYGSRYWYFDVWGQGTTVTVSSASTKGPSVFPLAPSSKSTSGGTAALGCLVKDYFPEPVTVSWNSGALTSGVHTFPAVLQSSGLYSLSSVVTVPSSSLGTQTYICNVNHKPSNTKVDKRVEPKSCDKTHTCPPCPAPPAAAPSVFLFPPKPKDTLMISRTPEVTCVVVDVSHEDPEVQFNWYVDGVEVHNAKTKPREEQFNSTFRVVSVLTVVHQDWLNGKEYKCKVSNKGLPAPIEKTISKTKGQPREPQVYTLPPSREEMTKNQVSLTCLVKGFYPSDIAVEWESNGQPENNYKTTPPMLDSDGSFFLYSKLTVDKSRWQQGNVFSCSVMHEALHNHYTQKSLSLSPG
light: DIQMTQSPSSLSASVGDRVTITCRASENIYRNLAWYQQKPGKAPQLLLYAATNLADGVPSRFSGSGSGTDYTLTISSLQPEDFATYYCQHFWGTPWTFGQGTKVEIKRTVAAPSVFIFPPSDEQLKSGTASVVCLLNNFYPREAKVQWKVDNALQSGNSQESVTEQDSKDSTYSLSSTLTLSKADYEKHKVYACEVTHQGLSSPVTKSFNRGEC
notes: human Ig kappa; also called L1-6/HA2
- A450 as % of hEphA4-SEAP-His (SEAP-His): 6.1%
- A450 as % of hEphA4-SEAP-His [1]: 6%
- A450 as % of hEphA4-SEAP-His [2]: 5.8%
- A450 as % of hEphA4-SEAP-His [3]: 6.3%
- A450 as % of hEphA4-SEAP-His [4]: 6.1%

B5: humanized antibody No. 89 (antibody, human IgG1, kappa)
heavy: QIQLVQSGSELKKPGASVKVSCKASGYTFTDYSMHWVRQAPGQGLKWMGWINTETGEPTYAQGFTGRFVFSLDTSVSTAYLQISSLKAEDTAVYYCARIPLYYYGSRYWYFDVWGQGTTVTVSSASTKGPSVFPLAPSSKSTSGGTAALGCLVKDYFPEPVTVSWNSGALTSGVHTFPAVLQSSGLYSLSSVVTVPSSSLGTQTYICNVNHKPSNTKVDKRVEPKSCDKTHTCPPCPAPPAAAPSVFLFPPKPKDTLMISRTPEVTCVVVDVSHEDPEVQFNWYVDGVEVHNAKTKPREEQFNSTFRVVSVLTVVHQDWLNGKEYKCKVSNKGLPAPIEKTISKTKGQPREPQVYTLPPSREEMTKNQVSLTCLVKGFYPSDIAVEWESNGQPENNYKTTPPMLDSDGSFFLYSKLTVDKSRWQQGNVFSCSVMHEALHNHYTQKSLSLSPG
light: DIQMTQSPSSLSASVGDRVTITCRASENIYRNLAWYQQKPGKAPQLLLYAATNLADGVPSRFSGSGSGTDYTLTISSLQPEDFATYYCQHFWGTPWTFGQGTKVEIKRTVAAPSVFIFPPSDEQLKSGTASVVCLLNNFYPREAKVQWKVDNALQSGNSQESVTEQDSKDSTYSLSSTLTLSKADYEKHKVYACEVTHQGLSSPVTKSFNRGEC
notes: human Ig kappa; also called L1-6/HA4
- A450 as % of hEphA4-SEAP-His (SEAP-His): 5.8%
- A450 as % of hEphA4-SEAP-His [1]: 5.8%
- A450 as % of hEphA4-SEAP-His [2]: 5.7%
- A450 as % of hEphA4-SEAP-His [3]: 5.7%
- A450 as % of hEphA4-SEAP-His [4]: 5.8%
